Legend:
[1] = substrate: Nc1ncnc2c1ncn2[C@@H]1O[C@H](COP(=O)(O)OP(=O)(O)O[C@H]2O[C@H](CO)[C@@H](O)[C@H](O)[C@H]2O)[C@@H](O)[C@H]1O; experiment: ADPGlc kinetics of starch synthase SSI-1; assay type: biochemical, maize; details: other: −citrate, 5 mg/ml amylopectin as primer, 37° C.
Text: (§1) FIG. 58. SSI-1, SSI-2, and SSI-3 construct design. Three forms of SSI were constructed in the pET expression (see Methods). pExs10a encodes SSI-1, the full length maize SSI (583 amino acids) which has the N-terminal sequence CVAELSREGP (SEQ ID NO:64). pExs8 encodes a truncated SSI, SSI-2, with amino acids # 8-52 deleted from the N-terminus of SSI-1 and which has the N-terminal sequence CVAELSR/DLG (SEQ ID NO:65). pExs1d encodes the most truncated form of SSI, SSI-3, with the first 93 amino acids deleted from SSI-1 and which has the N-terminal sequence SIVFVTGE (SEQ ID NO:66). A depiction of the waxygene, encoding GBSS, which has the N-terminal sequence ASAGMNW (SEQ ID NO:67), is also included for comparison. The amino acid motif KS/TGGL (SEQ ID NO:9), the putative binding site for ADGPGlc, in indicated by the triangles. The KS/TGGL (SEQ ID NO:9) motif is located 18 amino acids from the N-terminus in GBSS, while the motif is 106 amino acids from the N-terminus in maize SSI. Drawing not to scale.
(§2) 5 mL of supernatant were used to assay STS and SBE activities as previously described (Preiss) with minor modification. […] The unincorporated [^14C]-ADPGlc was separated with Dowex anion exchange column (200-400 mesh, Sigma Chemical Co.). […] SBE activity was determined by phosphorylase stimulation assay. One unit of activity is defined as 1 mmol Glc incorporated into the a-glucan per min at. […]

[2] = substrate: Nc1ncnc2c1ncn2[C@@H]1O[C@H](COP(=O)(O)OP(=O)(O)O[C@H]2O[C@H](CO)[C@@H](O)[C@H](O)[C@H]2O)[C@@H](O)[C@H]1O; experiment: ADPGlc kinetics of starch synthase SSIIb-1; assay type: biochemical, maize; details: 37° C.
[3] = substrate: Nc1ncnc2c1ncn2[C@@H]1O[C@H](COP(=O)(O)OP(=O)(O)O[C@H]2O[C@H](CO)[C@@H](O)[C@H](O)[C@H]2O)[C@@H](O)[C@H]1O; experiment: purified protein, by the assay type; details: other: −citrate, 5 mg/ml amylopectin as primer, 37° C.
Procedure: (SEQ ID NO:64). pExs8 encodes a truncated SSI, SSI-2, with amino acids # 8-52 deleted from the N-terminus of SSI-1 and which has the N-terminal sequence CVAELSR/DLG (SEQ ID NO:65). pExs1d encodes the most truncated form of SSI, SSI-3, with the first 93 amino acids deleted from SSI-1 and which has the N-terminal sequence [sequence]
5 mL of supernatant were used to assay STS and SBE activities as previously described (Preiss) with minor modification. The reaction mixture for STS contained 100 mM Bicine buffer, 10 mg/mL glycogen, 0.5 mg/mL BSA, 0.5 M sodium citrate, 25 mM potassium acetate, 10 mM GSH, 3 mM [^14C]-ADPGlc (500 dpm/nmol) and enzyme in a final volume of 0.1 mL. The reaction was carried out at 25° C. for 15 min and terminated by boiling for 2 min. The unincorporated [^14C]-ADPGlc was separated with Dowex anion exchange column (200-400 mesh, Sigma Chemical Co.). One unit of activity is defined as 1 nmol Glc incorporated into the a-glucan per min at 25° C.
For the recombinant SS purification, the cell pellet was resuspended in sonication buffer (50 mM Tris-acetate, pH 7.5, 10 mM EDTA, and 5 mMDTT; 7 ml buffer per gram of cell mass), and cells were lysed using a Fisher 550 Sonic Dismembrator with 5×1 min. bursts with 30 sec. intervals. The homogenate was centrifuged at 9600 g for 30 minutes. SSI in the supernatant was then precipitated by slowly adding neutralized saturated ammonium sulfate to 40% saturation. After stirring on ice for an additional 50 minutes, proteins were collected by centrifugation at 12500 g for 45 minutes. The protein pellet was then redissolved in buffer A (50 mM Tris, pH 5.5, 1 mM EDTA, and 5 mM DTT) containing 0.1 M KCl and dialyzed against the same buffer, with one change of buffer. After dialysis, the sample was centrifuged at 13000 g for 20 minutes to remove insoluble materials. The resulting supernatant was loaded onto amylase affinity column pre-equilibrated with dialysis buffer, and the flow through was collected. […]

[4] = substrate: Nc1ncnc2c1ncn2[C@@H]1O[C@H](COP(=O)(O)OP(=O)(O)O[C@H]2O[C@H](CO)[C@@H](O)[C@H](O)[C@H]2O)[C@@H](O)[C@H]1O; experiment: ADPGlc kinetics of starch synthase SSI-3; assay type: biochemical, maize; details: other: −citrate, 5 mg/ml amylopectin as primer, 37° C.
Text: as §1, §2

[5] = substrate: Nc1ncnc2c1ncn2[C@@H]1O[C@H](COP(=O)(O)OP(=O)(O)O[C@H]2O[C@H](CO)[C@@H](O)[C@H](O)[C@H]2O)[C@@H](O)[C@H]1O; experiment: ADPGlc kinetics of starch synthase SSIIb-2; assay type: biochemical, maize; details: 37° C.
Text: FIG. 60. SSIIb-1 and SSIIb-2 construct diagram. Two forms of SSIIb were constructed in the pET expression system (see Methods). pExs9 encodes SSIIb-1 which has the N-terminal sequence GSVGAALRS (SEQ ID NO:70), the putative full-length maize SSIIb which has the N-terminal sequence AAAPAGEE (SEQ ID NO:2). […] A depiction of the waxy gene, encoding GBSS which has the N-terminal sequence ASAGMNVV (SEQ ID NO:67), is also included for comparison. The amino acid motif KTGGL (SEQ ID NO:10), the putative binding site for ADPGlc, is indicated by the triangles. The KTGGL (SEQ ID NO:10) motif is located 18 amino acids from the N-terminus in GBSS, while the motif is 158 amino acids from the N-terminus in maize SSIIb.
5 mL of supernatant were used to assay STS and SBE activities as previously described (Preiss) with minor modification. […] […] The unincorporated [^14C]-ADPGlc was separated with Dowex anion exchange column (200-400 mesh, Sigma Chemical Co.). […] SBE activity was determined by phosphorylase stimulation assay. One unit of activity is defined as 1 mmol Glc incorporated into the a-glucan per min at. 30° C.
For the recombinant SS purification, the cell pellet was resuspended in sonication buffer (50 mM Tris-acetate, pH 7.5, 10 mM EDTA, and 5 mMDTT; 7 ml buffer per gram of cell mass), and cells were lysed using a Fisher 550 Sonic Dismembrator with 5×1 min. bursts with 30 sec. intervals. The homogenate was centrifuged at 9600 g for 30 minutes. SSI in the supernatant was then precipitated by slowly adding neutralized saturated ammonium sulfate to 40% saturation. After stirring on ice for an additional 50 minutes, proteins were collected by centrifugation at 12500 g for 45 minutes. The protein pellet was then redissolved in buffer A (50 mM Tris, pH 5.5, 1 mM EDTA, and 5 mM DTT) containing 0.1 M KCl and dialyzed against the same buffer, with one change of buffer. After dialysis, the sample was centrifuged at 13000 g for 20 minutes to remove insoluble materials. The resulting supernatant was loaded onto […] pre-equilibrated with dialysis buffer, and the flow through was collected. The column was washed with 10 column volumes of buffer a containing 0.1 M KCl, and then with buffer A containing 0.5 M KCl and 0.5 M maltose, collecting fractions during both washes. The active fractions were pooled and dialyzed overnight against buffer A, with one change of buffer. The next day, the amylase column sample was filtered and applied to a mono Q 5/5 FPLC column (Pharmacia). After washing with buffer A, a 20 ml 0-0,4 M KCl gradient was employed. […]

B1: maize starch synthase SSI-1 (STSI-1), full length SSI (583 amino acids), N-terminus CVAELSREGP (SEQ ID NO:64) (Zea mays) (protein)
chain: CVAELSREGPAPRPLPPALLAPPLVPGFLAPPAEPTGEPASTPPPVPDAGLGDLGLEPEGIAEGSIDNTVVVASEQDSEIVVGKEQARAKVTQSIVFVTGEASPYAKSGGLGDVCGSLPVALAARGHRVMVVMPRYLNGTSDKNYANAFYTEKHIRIPCFGGEHEVTFFHEYRDSVDWVFVDHPSYHRPGNLYGDKFGAFGDNQFRYTLLCYAACEAPLILELGGYIYGQNCMFVVNDWHASLVPVLLAAKYRPYGVYKDSRSILVIHNLAHQGVEPASTYPDLGLPPEWYGALEWVFPEWARRHALDKGEAVNFLKGAVVTADRIVTVSKGYSWEVTTAEGGQGLNELLSSRKSVLNGIVNGIDINDWNPATDKCIPCHYSVDDLSGKAKCKGALQKELGLPIRPDVPLIGFIGRLDYQKGIDLIQLIIPDLMREDVQFVMLGSGDPELEDWMRSTESIFKDKFRGWVGFSVPVSHRITAGCDILLMPSRFEPCGLNQLYAMQYGTVPVVHATGGLRDTVENFNPFGENGEQGTGWAFAPLTTENMFVDIANCNIYIQGTQVLLGRANEARHVKRLHVGPCR
Km [1]: 240 ± 20 µM

B2: maize starch synthase SSIIb-1, putative full-length SSIIb (637 amino acids), N-terminus … (SEQ ID NO:70) (Zea mays) (protein)
chain: AAAPAGGESEEAAKSSSSSQAGAVQGSTAKAVDSASPPNPLTSAPKQSQSAAMQNGTSGGSSASTAAPVSGPKADHPSAPVTKREIDASAVKPEPAGDDARPVESIGIAEPVDAKADAAPATDAAASAPYDREDNEPGPLAGPNVMNVVVVASECAPFCKTGGLGDVVGALPKALARRGHRVMVVIPRYGEYAEARDLGVRRRYKVAGQDSEVTYFHSYIDGVDFVFVEAPPFRHRHNNIYGGERLDILKRMILFCKAAVEVPWYAPCGGTVYGDGNLVFIANDWHTALLPVYLKAYYRDNGLMQYARSVLVIHNIAHQGRGPVDDFVNFDLPEHYIDHFKLYDNIGGDHSNVFAAGLKTADRVVTVSNGYMWELKTSEGGWGLHDIINQNDWKLQGIVNGIDMSEWNPAVDVHLHSDDYTNYTFETLDTGKRQCKAALQRQLGLQVRDDVPLIGFIGRLDHQKGVDIIADAIHWIAGQDVQLVMLGTGRADLEDMLRRFESEHSDKVRAWVGFSVPLAHRITAGADILLMPSRFEPCGLNQLYAMAYGTVPVVHAVGGLRDTVAPFDPFNDTGLGWTFDRAEANRMIDALSHCLTTYRNYKESWRACRARGMAEDLSWDHAAVLYEDVLVKAKYQW
notes: N-terminus printed as both … and AAAPAGEE
Km ([2]; other: with amylopectin): 400 ± 20 µM | Vmax ([2]; other: with amylopectin): 72.8 ± 2.8 μmol min^−1 mg^−1 protein | Km ([2]; other: with glycogen): 710 ± 10 µM | Vmax ([2]; other: with glycogen): 76.8 ± 3.2 μmol min^−1 mg^−1 protein

B3: maize starch synthase SSI-2 (STSI-2), N-terminally truncated SSI, amino acids 8-52 of SSI-1 deleted, N-terminus CVAELSR/DLG (SEQ ID NO:65) (Zea mays; DEL47-91) (protein)
chain: CVAELSRDLGLEPEGIAEGSIDNTVVVASEQDSEIVVGKEQARAKVTQSIVFVTGEASPYAKSGGLGDVCGSLPVALAARGHRVMVVMPRYLNGTSDKNYANAFYTEKHIRIPCFGGEHEVTFFHEYRDSVDWVFVDHPSYHRPGNLYGDKFGAFGDNQFRYTLLCYAACEAPLILELGGYIYGQNCMFVVNDWHASLVPVLLAAKYRPYGVYKDSRSILVIHNLAHQGVEPASTYPDLGLPPEWYGALEWVFPEWARRHALDKGEAVNFLKGAVVTADRIVTVSKGYSWEVTTAEGGQGLNELLSSRKSVLNGIVNGIDINDWNPATDKCIPCHYSVDDLSGKAKCKGALQKELGLPIRPDVPLIGFIGRLDYQKGIDLIQLIIPDLMREDVQFVMLGSGDPELEDWMRSTESIFKDKFRGWVGFSVPVSHRITAGCDILLMPSRFEPCGLNQLYAMQYGTVPVVHATGGLRDTVENFNPFGENGEQGTGWAFAPLTTENMFVDIANCNIYIQGTQVLLGRANEARHVKRLHVGPCR
Km [3]: 250 ± 40 µM

B4: maize starch synthase SSI-3 (STSI-3), N-terminally truncated SSI, first 93 amino acids of SSI-1 deleted, N-terminus SIVFVTGE (SEQ ID NO:66) (Zea mays) (protein)
chain: SIVFVTGEASPYAKSGGLGDVCGSLPVALAARGHRVMVVMPRYLNGTSDKNYANAFYTEKHIRIPCFGGEHEVTFFHEYRDSVDWVFVDHPSYHRPGNLYGDKFGAFGDNQFRYTLLCYAACEAPLILELGGYIYGQNCMFVVNDWHASLVPVLLAAKYRPYGVYKDSRSILVIHNLAHQGVEPASTYPDLGLPPEWYGALEWVFPEWARRHALDKGEAVNFLKGAVVTADRIVTVSKGYSWEVTTAEGGQGLNELLSSRKSVLNGIVNGIDINDWNPATDKCIPCHYSVDDLSGKAKCKGALQKELGLPIRPDVPLIGFIGRLDYQKGIDLIQLIIPDLMREDVQFVMLGSGDPELEDWMRSTESIFKDKFRGWVGFSVPVSHRITAGCDILLMPSRFEPCGLNQLYAMQYGTVPVVHATGGLRDTVENFNPFGENGEQGTGWAFAPLTTENMFVDIANCNIYIQGTQVLLGRANEARHVKRLHVGPCR
Km [4]: 620 ± 40 µM

B5: maize starch synthase SSIIb-2, N-terminally truncated SSIIb, first 144 amino acids deleted (492 amino acids), N-terminus MNVVVVASE (SEQ ID NO:71) (Zea mays) (protein)
chain: MNVVVVASECAPFCKTGGLGDVVGALPKALARRGHRVMVVIPRYGEYAEARDLGVRRRYKVAGQDSEVTYFHSYIDGVDFVFVEAPPFRHRHNNIYGGERLDILKRMILFCKAAVEVPWYAPCGGTVYGDGNLVFIANDWHTALLPVYLKAYYRDNGLMQYARSVLVIHNIAHQGRGPVDDFVNFDLPEHYIDHFKLYDNIGGDHSNVFAAGLKTADRVVTVSNGYMWELKTSEGGWGLHDIINQNDWKLQGIVNGIDMSEWNPAVDVHLHSDDYTNYTFETLDTGKRQCKAALQRQLGLQVRDDVPLIGFIGRLDHQKGVDIIADAIHWIAGQDVQLVMLGTGRADLEDMLRRFESEHSDKVRAWVGFSVPLAHRITAGADILLMPSRFEPCGLNQLYAMAYGTVPVVHAVGGLRDTVAPFDPFNDTGLGWTFDRAEANRMIDALSHCLTTYRNYKESWRACRARGMAEDLSWDHAAVLYEDVLVKAKYQW
Km ([5]; other: with amylopectin): 320 ± 30 µM | Vmax ([5]; other: with amylopectin): 90.9 ± 4.2 μmol min^−1 mg^−1 protein | Km ([5]; other: with glycogen): 320 ± 40 µM | Vmax ([5]; other: with glycogen): 130 ± 6 μmol min^−1 mg^−1 protein

Reference: US7285703B2, “Plant like starches and the method of making them in hosts” (BASF Plant Science GmbH, priority 1998, dated 2007)
